These results are taken from patent publication US20260049134A1.

This assay addresses SELL (L-Selectin). In words: ELISA on coated SELL-Fc-His, 150 ng IgG1; None 0.096.

Sequence of SELL (L-Selectin) (chain, as listed by the source limits assumed): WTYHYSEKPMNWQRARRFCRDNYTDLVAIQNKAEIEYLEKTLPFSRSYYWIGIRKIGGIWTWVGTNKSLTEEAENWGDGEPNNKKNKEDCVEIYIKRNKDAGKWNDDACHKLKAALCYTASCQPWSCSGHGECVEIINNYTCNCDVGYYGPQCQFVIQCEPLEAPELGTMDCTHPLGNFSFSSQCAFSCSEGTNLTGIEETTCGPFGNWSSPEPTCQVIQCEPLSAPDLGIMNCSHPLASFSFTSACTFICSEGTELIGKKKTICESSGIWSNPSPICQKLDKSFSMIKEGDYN

B1: HW-28 chimeric rabbit-human IgG1 LA/LA/PG (antibody, V domains shown)
VH: QKQLVESGGRLVTPGTPLTLTCTASGFSLSSNAMSWVRQAPGEGLQWIGTISSGGSTYYASWAKGRFTISKTSTTVTLKMTSLTTEDTATYFCARGADLHRLWGPGTLVTVSS
VL: SFVLTQPASVQVNLGQTVSLTCTGKPLSRSFASWYQQKPGQAPVLVIYRDTSRPSGVPDRFSGSSSGNTATLTISGAQAGDEADYYCATSDGSGSSYQYVFGGGTQLTVTG
Take B1: the ELISA Absorbance (405 nm-570 nm) is 0.188.
